# Assay: label from the status in PepcDB records
row,Sequence,protein production
1,MDRNLKIFITVMLILSVISQFLPFKRDAVSLINVITNLAAFMGLSYACIYSRKVYPHLYLTLLLLSAAQFFSFLGDFTWFILESILSLNPFPSVADLFYLLYYPIFAAGIFTIPIKRYSDLRSIIDLLIILVASASAAWVFLLEPTVFAGGDFTEVLVSTLYVLGDLLIVFMIMDLIINKLGHLRSRTLHVFLASIIILLAADISFTYQNLTGIYAGGTPQDLLWAFSYILLLIAVNEFFKEDWSKPLYVEKKVTAVTYTPYIFIILFYLLTAYSVIKGGAEKSTVLLVSLGFIIVLFILRQHLSMKENMALLNDVENERRRAENYLEVAGSLIMVLDEKTRVKLINRRGLEILECDAGEVAGKNWFMTFVPPEDRGWREKLYTEKISSGSKGYHLTGEILTCKGDRKTVTWHVVFLREDGEFRGSIISGDDITELQRATRALEMSEMRYREIFELAPSPIISVGDDLIIRDCNRRAESVLGYQRGELIGRNLMDLIHPEDAGEDFEGERRLLRSNGDVIYADIGVARVGDERIIIIEDQTEIRRSLQEKELLLREIHHRVKNNLQIISSLLSIQERQLESEELSDVLRESRERIRSIALVHEHLYRSTNLRTIRIRNYLNNILSKLSQGQTHGKDVRISSSIEDLEFNLETSLPIGLMVNELVSNSLKHSGADNITVELRSLNGTLELTVKDDGIGLESPEVLEKSGSMGWYLIRALTDQLDGELKIETEDGLSVSLRFRELGYRERY,failed
2,MYSPIPPSLFQQIQPAYCGQEFILLRDNEEYKEIIVQAGRTYEISLMVESENSYIAWDFSLTQGKITMVIIFKTKYVTVNHLIAFSDD,failed
3,MGHHHHHHSHMHGWTWSVPKFMKRMKVPDYKDKAVFGVPLIVHVQRTGQPLPQSIQQALRYLRSNCLDQVGLFRKSGVKSRIHALRQMNENFPENVNYEDQSAYDVADMVKQFFRDLPEPLFTNKLSETFLHIYQYVSKEQRLQAVQAAILLLADENREVLQTLLCFLNDVVNLVEENQMTPMNLAVCLAPSLFHLNLL,failed
4,MSTQSEAILEENLLKQLVSLGYEKVLIRDEAELLANLKAQLERHNKITLDDMEFSRILNHLNKGNVFEKAKILRDKFALTREDGTTKYIEFLDTERWCQNLFQVTHQVTIEGSYKNRYDVTILINGLPLVQIELKRRGLELKEAFNQINRYQRHSYGANSALFHYVQIFVISNGVNTKYYANNRNQSFKQTFFWADKENKNITNLNEFTDLFLEPCHISKMICKYVVLAEATKTLMILRPYQYHATEAIIDRVVNTNKNGYIWHTTGSGKTLTSFKTAQILMKLPNVHKVVFVVDRKDLDYQTTKEFNSFSQGSVDGTDNTASLVRQFSDDTRLIVTTIQKLNTAINKQRYLEKMKNLRDKRIVFIFDECHRSQFGDTHRNITKFFNNYQMIGFTGTPIFADNATGNKFGKRTTKELFDECLHKYVITDAIADENVLKFSVEYIGRYKEREGSQNNLDIEVEDIDTKELLESPERLEKIVDYIIAHHDRKTHSKEFTAMMCVSSVDVLTKYYELFRSKQHGLKIATIFSYSTNEDDKDANGLDSLEESDGAHVDEEHINMHSRDKLEEYIAHYNTMFGTNFTTKDSQSFYNYYNDISKRVKNQEVDILLVVNMFLTGFDSKTLNTLYVDKNLKYHGLIQAFSRTNRILNEKKSQGNILCFRNLKKATDAAIALFSNKNAKEIILMKSYEEYVEKFIEALKKLKEIAPTIDSVDSLYDEESKLEFIKAFRELMRIQNILGSFADFSFADLGIAEQEFEEYKSKYLDIHDTIKREGKEKVSILEDVDFELELIHKDEINVTYILKLLAQLKDASEQEHQTQRQNIINIINGNAQLRSKRELIERFIDAHLMSLEDIDMVDGAFEKFWNEEKLKAFDALCEEENLNKEKVKKVVDTYLYDERPPLSDDIANTLNIKPKLLERRKVVPRVLDKIMTFVDRFYT,failed
5,MKNKSYYFLTIIRYAVYLLIGMCAVFYGELKNTEMYYFIVFFLMYIIVTQFRIYYLRNRKYVSVSMVVDLVLVCFMYSYVRNFSFLFLFISVLDSSIMLSKTQAYASGIICSVVIIIQNVKIPFSLKAGTNLINILFSILLIFTLVFIGDSFREEQKRKIEAQGLYDRLRESEEKLRGAYEKLERYSETVEELSILRERNRISREIHDSVGHTLSAVLMQLQALLYLIKSDKEESLKTVEEMTGFVRGGIENVRRTVRELKPTDFDRFEGVFAIEEMIRKYKKLTSADIRFILSKEKRSLSSDESFISYRVVQEALNNAIRHGKASLVEVSMQFNQDRLYIRIKDNGVGTDGIKKGFGMTGMEERVKKLGGNIEFYSERDKGFEVTVNLPKSSEEKNSIINY,failed
6,MAQIISNAAVGRTLLILLLCAGVFFFIDFLVPALAALIICFSSWPLYKKLLVKCGGRSAVAASIALVLIVLGLITPLIFVFSYALQEIRIWAEWLVYANQHGAPVPLWIKDLPWVGEWLTLQWQQFIGEPHELGQIVSAISGQNLTGISRWVLQLGWNTLGLLLTLLFMLITLFFLYKDGESVAKQVDVVGERILPARWYRFSRVVPATVSSTVIGMTLIAIGEGIVLGIAYWIAGVPSAVAFGVLTAFMALIPGGAPTMFTLISLYLVGTGDMTAGVGLFLWGSIELFIVDKTLRPNLVGGPIKLPFLPTFFGLIGGVKTMGFVGLFVGPVLMALLVAIWREWLRDDPDTFVMPESLAPETLEADKVQRRLD,failed
7,ECTIKNNIENILRNSYINVGYEEVRSPTLEFYDVYNLENQPISQEKMYKLFDNTGRILVLRPDMTTPIARICATKLKNRVYPLKLSYTGNIYRMNKALNGKISEITQSGIEILGFSSLKADAEVIITAIKAILKTGLKNFKIEIGQVEFFKSIISDTALKEQDTEKLRNFIENKNFSKVEEFILRNSDLIGETSSKVLMNLPNLFGGKEVIEKAEQLTSNKQAIEALKKVRDLYDIVKRAGFGEYILIDLGMVQHINYYTGLIFRGYAHGIGDDLLSGGRYDKLLGQFGYDIPATGLAINVDNLVA,failed
8,MNKRCEEVLRRYFAEVPFIIEKACELAESMLGEGSHGLSHTIRVLDLALQIGRVEGANLEVLALAAILHDIARPLEDKGRIKDHAQEGARIVRSFLSKLRYPHVDEVAHAIEAHRFSTNIEPRTLEAKILSDADKIDALGAIGIARVFMYAGEKGRSIEDSIKHFEEKILRLKDLMYTETGKRIAQERHKIVEEFVNILKKELILEHHHHHH,not failed
9,MVQLSLSQVHQDQIYRHGERCYPEECCGLLLGKILIGENGHRHWQVVEVQPTENCWGDVEEFQQNNHQGNKLHYFAIDPKVLLSAQKDCRQKGLSIIGIFHSHPHGQPIPSEFDRAIAWPEYIYLIASGLEHHHHHH,failed
10,GDGLKVSFDVTNTGKVAGADTPQLYVTSGQRKAMLRLAGFQKVDLAPGETKRVTLNVEPRILADYDTAKPGWTIAAGTYPLYVGRNAGEPVLTGSAKLKSWSR,failed
11,DGAVQYYDGAVTEITEQKRQEQQLRQSRERWRRLVEKLQDGLHIAVDGDIRYINPAGAEILGADAPDDVIGHSLWDFVALEQAQQEIFEDRLRKIYRERTSTAPQEMEITGLNGERRVIESYTVPIKFDGEQAGQTVFRDITEQKEMEQALREREARLRSITENVS,failed
12,MKKPVYMKGGLHWLRNDGAIVAFNPETEKARLISIRFPKELCSKTLFTAADNNLILISATEEVFYVYAVENILTDPKWVVLKQIRNGVLDEKMLYSWYPEAYDGKCLMLREILKKDHYKQVLHGYDLRANKWEVIGSIPGWYTSALDFYQFTPSLSSVIGPDAKEEEEILACDHKKISSINSIIRMLDGISS,failed
13,MNCIIAQSGGPTSVINASVYGLVKANKKLNLYENVYGGLNGIEGILNKKIINLSDLDELQLERFKNSPASGLGSCRYKLKPLSESEDEYLKLLDILNSLNIKAFFYVGGNDSMDTTAKLNAFAKAKNIDIKFFGIPKTIDNDLMHTDHTPGFGSAAKFISTAVLETYLDSKVYTNNGIFIIETMGRDTGWLAASGALATINGNKCADLVYLPERAFSVQSFLTDVARIFKEKKHVYIVASEGLKDENGKFLTETAPNDDSFGHAQLGGVGAYLKNLIIQASITHRVKSLELNTLQRCSMHASSKIDVNEAVMVGQAALEASINSEGGYMVAIRRDSSFPYKSSTFLIEADKIANNIKYFPSEWINEEGNNITEEGLLYLKPLISDFEDRDSLPLYHSFVL,failed
14,MKVFIIGAAGGIGNRLSSLLHARGDAVSGMHRNLEQASKITDTGATAVLGDLIHNSTEELAELFRGHDAIVFSAGAHGTGQENTTLIDGAGLRKAADAASAANVSRFILVSAFPESSRGENTTENFEHYMKVKKSADVYLSHTDLDWVIVRPGVLQDEAGDGLVTAGLAINYGNVARDNVAAFIDEALHQPQLSKIIVELTDGSTPVAEAVERLIKLEHHHHHH,not failed
15,MFWDNLTVAAKFFIEISVELTILFIGITFLVGLSQEYVPDETIKRALGGRNKVIGSILGAGFGAITPFCSCSTIPLLLGMLKAGAPFAAAMAFLFSSPLLNPVIISLFVILLGWKVTALYFVVVFMSTIAIGLLLDWLGFSNQIKPVAVVRNRCDCEQDTNAKSRIQRSAVFAFSLFRQLMPYLLLGAGIGAFIHGFVPTEVITRVAGPSNPLAVPVAAIIGVPIYIRAETMIPIGLALIKKGMSVGAVLALIIGGAGASIPELTLLSSIFKKRLLTAFVITVFSIAVIAGYLANLLTL,failed
16,MTTLLRNETPRRCAFWRGARGILAFVLALALTIQGVAPAWAFLGLGGFTIKDEVELGRKFDVLIKSRMPLVEDPEVKVYVQDIVARLLEQAPPQPFDFKTNVLLHNSLNAFASPGGFIFVHTGLVMQMDHEAEVAGVLAHELAHATQRHIAGRIEKMQTTSILSMAGALAGAFLGGGSGKGAAMAGSIAAGQSAMLNYSRVDETEADEIGLRYLIAAGFRPEGMVGAFEKIRKKQWAMGTDIPSYLSTHPAVNERINSLSARIAALPADIRSRPNDDARFLRVRTICRARYGDPAVSERLFADAPAGDCLAQLGKAILFSRQNRVAEATAAFDKALQCSPKDQLIWREAGRFHYTKGDKGRAAAMLQRATLMNPDDYMALFFYARLLADSGQPQKSYQYFDEVLRRLPEDAEVHYYYGRVLGASGQPFKAYLHLAYSSLYSNDKHKTESFEEQARAQARTPEEMAELERFAATYQERKAFW,failed
17,MKIIKRAIISLIILSLLISITMSNASASEELYYSVEYKNTATFNKLVKKKSLNVVYNIPELHVAQIKMTKMHANALANYKNDIKYINATCSTCITSEKTIDRTSNESLFSRQWDMNKITNNGASYDDLPKHANTKIAIIDTGVMKNHDDLKNNFSTDSKNLVPLNGFRGTEPEETGDVHDVNDRKGHGTMVSGQTSANGKLIGVAPNNKFTMYRVFGSKKTELLWVSKAIVQAANDGNQVINISVGSYIILDKNDHQTFRKDEKVEYDALQKAINYAKKKKSIVVAAAGNDGIDVNDKQKLKLQREYQGNGEVKDVPASMDNVVTVGSTDQKSNLSEFSNFGMNYTDIAAPGGSFAYLNQFGVDKWMNEGYMHKENILTTANNGRYIYQAGTSLATPKVSGALALIIDKYHLEKHPDKAIELLYQHGTSKNNKPFSRYGHGELDVYKALNVANQKAS,not failed
18,MLSFVVMSFLIFVIVMVNEHKAHLSVIQKMILAVVNGSITIILSIIVFYIFYPQNISLFLITAGILTVFVFLYGLLLFLFGFTHRELSYLSKYDKYKFLCKFTIEMFSSLTNHAFLTISAIVLYQIQHPKPTIDFIVMIGMITISVIVVMLLFLKTYSIIIKQLKKLENN,failed
19,MDQLNKITPTGTEKVSESSCNKLEETCTKCGKNIYKKVTILGIDRIVKTMCECESKAWHEKRQHEEMLKKQNRLNELITNSLMDEKFRESNFENWDFNKGSRSMYNLGRRYADNFKECKQQGLGLLIYGSAGNGKTYLASAIANELLKQYIPVVCVSINGLLSRIQKTYNSWGKEAESDIIRSFINADLLIIDDLGTEKSSEWSRSMIYNIVDSRYRSKLPLIITSNLEINPSKRHGVLADQYHERTESRIFEMCTPVENTSKSIRIEEAKKKTELLRKILY,failed
20,MQAALEVTARYCGRELEQYGQCVAAKPESWQRDCHYLKMSIAQCTSSHPIIRQIRQACAQPFEAFEECLRQNEAAVGNCAEHMRRFLQCAEQVQPPRSPATVEAQPLPAS,failed
